These results are taken from doi:10.1101/2022.11.03.515106 (bioRxiv, 2022).

One assay deals with T1, GFP-DBR1 (human, UniProt Q9UK59 1-544).
T1 sequence: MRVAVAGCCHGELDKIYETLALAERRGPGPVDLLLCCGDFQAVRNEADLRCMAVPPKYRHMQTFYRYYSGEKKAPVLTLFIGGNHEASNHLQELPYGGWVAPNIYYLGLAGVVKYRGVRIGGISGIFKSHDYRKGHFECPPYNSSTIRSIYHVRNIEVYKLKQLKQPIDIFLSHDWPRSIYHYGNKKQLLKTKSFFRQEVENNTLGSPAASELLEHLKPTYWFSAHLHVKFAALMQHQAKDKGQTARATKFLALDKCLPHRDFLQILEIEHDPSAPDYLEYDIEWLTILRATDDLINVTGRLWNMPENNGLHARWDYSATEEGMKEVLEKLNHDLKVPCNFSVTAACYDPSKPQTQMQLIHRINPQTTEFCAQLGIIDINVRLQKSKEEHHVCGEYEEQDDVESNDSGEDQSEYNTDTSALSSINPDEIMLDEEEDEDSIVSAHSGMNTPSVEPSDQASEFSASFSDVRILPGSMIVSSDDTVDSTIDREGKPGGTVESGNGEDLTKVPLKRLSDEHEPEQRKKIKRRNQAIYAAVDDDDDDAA
Description: pull-down.

The target in a further assay is T2, His-Flag-DBR1 (human, UniProt Q9UK59 1-544).
T2 sequence (looked up): T1 sequence
Description: pull-down.

B1: TTDN1-mCherry (natural protein, human, UniProt Q8TAP9 1-179, looked up)
chain: MQRQNFRPPTPPYPGPGGGGWGSGSSFRGTPGGGGPRPPSPRDGYGSPHHTPPYGPRSRPYGSSHSPRHGGSFPGGRFGSPSPGGYPGSYSRSPAGSQQQFGYSPGQQQTHPQGSPRTSTPFGSGRVREKRMSNELENYFKPSMLEDPWAGLEPVSVVDISQQYSNTQTFTGKKGRYFC
B1: in the assay with GFP-DBR1, the binding result was “binds”.

B2: GST-TTDN1 (natural protein, human, UniProt Q8TAP9 1-179, looked up)
chain: B1 chain
Turning to B2, the binding result with His-Flag-DBR1 is given as “binds”.
